The supplement of paper PMC10065799, “High-throughput profiling of sequence recognition by tyrosine kinases and SH2 domains using bacterial peptide display” (eLife, 2023)

Test system: c-Src
Assay: phosphorylation enrichment, bacterial display (enrichment ratio); higher = better substrate or ligand; peptides without Tyr show the background
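Throughout, for SH2 binding enrichment of the phosphorylated peptide, bacterial display: peptide library displayed on the E. coli surface as eCPX fusions, selected cells deep-sequenced, score is each peptide's frequency after selection divided by its frequency in the input.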
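Throughout, for phosphorylation enrichment, bacterial display: 11-residue human phosphosite peptides and single-mutation variants displayed on the E. coli surface, counted by deep sequencing, each peptide's frequency after selection divided by its frequency in the unselected input library; frequency after pTyr selection over input frequency; kinase dosed for 20-30% of maximal phosphorylation in three min.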

Compared with AEVIWYKGDEV, EILLSDLRTGY [TGM1_Y365_Y365D] is lower in phosphorylation enrichment: 0.474 for the first, 0.401 for the second.

Going from QDEHGYISLCF [HSPB1_Y133_R136L] to RQGKDYIGAIP [KDR_Y951_V952I], the phosphorylation enrichment falls from 1.16 to 0.837.

Compared with CGTPDYIAPEI [PRKCG_Y521], LVTCSYLLGNS [LMNA_Y646_R644C] is higher in phosphorylation enrichment: 0.433 for the first, 1.3 for the second.

First: QDTSRYTVCNL [BIRC3_Y245_S248C]
Second: KELANYFKLHH [AK7_Y390_YF]
The phosphorylation enrichment of the first is lower: 0.439 for the first, 0.481 for the second.

Going from KDHPDYKYQPR [SOX10_Y171] to WAMLAYNRSKL [WWOX_Y293], the phosphorylation enrichment falls from 0.412 to 0.266.

First: EKLIQYCQSKS [AKR1B1_Y199_G204S]
Second: DMDATYRPMFS [JUP_Y701_YF]
The phosphorylation enrichment of the first is lower: 0.448 for the first, 0.624 for the second.

Going from WHYTFYNELRV [ACTC1_Y93_H90Y] to TQTPPYVKKHR [LARP1B_Y457_P462R], the phosphorylation enrichment rises from 0.619 to 0.624.

First: NPQKSYLIRLF [WAS_Y83_F84L_YF]
Second: KRGVSYILKLA [SERPINB1_Y84_A82V]
The phosphorylation enrichment of the first is lower: 0.38 for the first, 0.412 for the second.

First: CPPKVYELMRA [ABL2_Y515]
Second: FLTQHYDAKPQ [ANG_Y38]
The phosphorylation enrichment of the first is higher: 1.33 for the first, 0.609 for the second.

First: EDKFMYFEFPQ [PTEN_Y240]
Second: RVNSAYQEKVS [ACAN_Y100_D102E]
The phosphorylation enrichment of the first is higher: 2.53 for the first, 0.291 for the second.

Going from FTRNFYVRAVL [CYBA_Y88_YF] to MSLRSYGSREG [APC_Y96], the phosphorylation enrichment falls from 0.554 to 0.458.

Compared with VDTFWYKFLKR [EPM2A_Y86], FQLENCCNGGG [INS_Y108_Y108C_YF] is higher in phosphorylation enrichment: 0.371 for the first, 0.467 for the second.

First: QSVEPYTKQQL [STAT3_Y640]
Second: EYYENYIEELK [PARP4_Y218_F215Y]
The phosphorylation enrichment of the first is lower: 0.626 for the first, 1.01 for the second.

Compared with SAASGYSDVTD [DTX2_Y425_T421A], LRWREYQRQDY [PRKRIP1_Y90_R87W] is higher in phosphorylation enrichment: 0.338 for the first, 0.486 for the second.

Compared with KILGRYFETGS [PAX2_Y72_YF], FPLELYERVRI [PRKCG_Y312_M317I_YF] is higher in phosphorylation enrichment: 0.413 for the first, 0.528 for the second.

Compared with MTFVFYRENLR [NLRP14_Y443_YF], FQKNVYSEELR [LMNA_Y211_I210V] is higher in phosphorylation enrichment: 0.288 for the first, 0.68 for the second.

Work on IQKKYYRAILE [CHD7_Y1218] yielded a phosphorylation enrichment of 0.324.

Target: Grb2 SH2 (UniProt P62993)
Sequence (P62993 whole entry, looked up): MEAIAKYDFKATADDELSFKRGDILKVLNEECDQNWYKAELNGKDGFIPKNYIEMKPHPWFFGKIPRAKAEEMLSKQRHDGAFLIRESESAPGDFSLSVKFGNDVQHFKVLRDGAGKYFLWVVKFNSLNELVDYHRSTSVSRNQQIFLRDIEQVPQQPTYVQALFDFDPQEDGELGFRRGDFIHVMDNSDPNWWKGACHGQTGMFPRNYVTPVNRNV
Assay: SH2 binding enrichment of the phosphorylated peptide, bacterial display (enrichment ratio); higher = better substrate or ligand; peptides without Tyr show the background

First: AEVIWYKGDEV
Second: EILLSDLRTGY [TGM1_Y365_Y365D]
The SH2 binding enrichment of the first is higher: 0.822 for the first, 0.74 for the second.

First: QDEHGYISLCF [HSPB1_Y133_R136L]
Second: RQGKDYIGAIP [KDR_Y951_V952I]
The SH2 binding enrichment of the first is lower: 0.637 for the first, 0.904 for the second.

Going from CGTPDYIAPEI [PRKCG_Y521] to LVTCSYLLGNS [LMNA_Y646_R644C], the SH2 binding enrichment falls from 0.853 to 0.732.

First: QDTSRYTVCNL [BIRC3_Y245_S248C]
Second: KELANYFKLHH [AK7_Y390_YF]
The SH2 binding enrichment of the first is lower: 0.79 for the first, 0.945 for the second.

Compared with KDHPDYKYQPR [SOX10_Y171], WAMLAYNRSKL [WWOX_Y293] is higher in SH2 binding enrichment: 1.04 for the first, 1.29 for the second.

First: EKLIQYCQSKS [AKR1B1_Y199_G204S]
Second: DMDATYRPMFS [JUP_Y701_YF]
The SH2 binding enrichment of the first is higher: 0.964 for the first, 0.762 for the second.

Going from WHYTFYNELRV [ACTC1_Y93_H90Y] to TQTPPYVKKHR [LARP1B_Y457_P462R], the SH2 binding enrichment rises from 0.992 to 1.18.

Going from NPQKSYLIRLF [WAS_Y83_F84L_YF] to KRGVSYILKLA [SERPINB1_Y84_A82V], the SH2 binding enrichment rises from 1.03 to 1.28.

First: CPPKVYELMRA [ABL2_Y515]
Second: FLTQHYDAKPQ [ANG_Y38]
The SH2 binding enrichment of the first is higher: 0.944 for the first, 0.902 for the second.

First: EDKFMYFEFPQ [PTEN_Y240]
Second: RVNSAYQEKVS [ACAN_Y100_D102E]
The SH2 binding enrichment of the first is lower: 0.745 for the first, 1.08 for the second.

Going from FTRNFYVRAVL [CYBA_Y88_YF] to MSLRSYGSREG [APC_Y96], the SH2 binding enrichment rises from 0.581 to 0.763.

First: VDTFWYKFLKR [EPM2A_Y86]
Second: FQLENCCNGGG [INS_Y108_Y108C_YF]
The SH2 binding enrichment of the first is higher: 0.957 for the first, 0.772 for the second.

Going from QSVEPYTKQQL [STAT3_Y640] to EYYENYIEELK [PARP4_Y218_F215Y], the SH2 binding enrichment rises from 0.978 to 2.13.

Going from SAASGYSDVTD [DTX2_Y425_T421A] to LRWREYQRQDY [PRKRIP1_Y90_R87W], the SH2 binding enrichment falls from 1.98 to 1.46.

Going from KILGRYFETGS [PAX2_Y72_YF] to FPLELYERVRI [PRKCG_Y312_M317I_YF], the SH2 binding enrichment falls from 0.9 to 0.854.

First: MTFVFYRENLR [NLRP14_Y443_YF]
Second: FQKNVYSEELR [LMNA_Y211_I210V]
The SH2 binding enrichment of the first is higher: 1.34 for the first, 1.24 for the second.

In the case of IQKKYYRAILE [CHD7_Y1218], the SH2 binding enrichment is reported as 0.976.

Target: SHP2-C SH2
Assay: as above

Going from AEVIWYKGDEV to EILLSDLRTGY [TGM1_Y365_Y365D], the SH2 binding enrichment falls from 0.684 to 0.629.

First: QDEHGYISLCF [HSPB1_Y133_R136L]
Second: RQGKDYIGAIP [KDR_Y951_V952I]
The SH2 binding enrichment of the first is lower: 0.579 for the first, 0.646 for the second.

Going from CGTPDYIAPEI [PRKCG_Y521] to LVTCSYLLGNS [LMNA_Y646_R644C], the SH2 binding enrichment rises from 0.699 to 0.765.

First: QDTSRYTVCNL [BIRC3_Y245_S248C]
Second: KELANYFKLHH [AK7_Y390_YF]
The SH2 binding enrichment of the first is lower: 0.78 for the first, 0.949 for the second.

First: KDHPDYKYQPR [SOX10_Y171]
Second: WAMLAYNRSKL [WWOX_Y293]
The SH2 binding enrichment of the first is lower: 0.77 for the first, 1.09 for the second.

First: EKLIQYCQSKS [AKR1B1_Y199_G204S]
Second: DMDATYRPMFS [JUP_Y701_YF]
The SH2 binding enrichment of the first is lower: 0.755 for the first, 0.886 for the second.

Going from WHYTFYNELRV [ACTC1_Y93_H90Y] to TQTPPYVKKHR [LARP1B_Y457_P462R], the SH2 binding enrichment rises from 0.779 to 0.956.

Compared with NPQKSYLIRLF [WAS_Y83_F84L_YF], KRGVSYILKLA [SERPINB1_Y84_A82V] is lower in SH2 binding enrichment: 0.822 for the first, 0.797 for the second.

Compared with CPPKVYELMRA [ABL2_Y515], FLTQHYDAKPQ [ANG_Y38] is lower in SH2 binding enrichment: 0.693 for the first, 0.64 for the second.

Going from EDKFMYFEFPQ [PTEN_Y240] to RVNSAYQEKVS [ACAN_Y100_D102E], the SH2 binding enrichment falls from 0.681 to 0.529.

Going from FTRNFYVRAVL [CYBA_Y88_YF] to MSLRSYGSREG [APC_Y96], the SH2 binding enrichment falls from 0.658 to 0.409.

Compared with VDTFWYKFLKR [EPM2A_Y86], FQLENCCNGGG [INS_Y108_Y108C_YF] is lower in SH2 binding enrichment: 1.04 for the first, 0.444 for the second.

First: QSVEPYTKQQL [STAT3_Y640]
Second: EYYENYIEELK [PARP4_Y218_F215Y]
The SH2 binding enrichment of the first is lower: 0.649 for the first, 0.706 for the second.

Compared with SAASGYSDVTD [DTX2_Y425_T421A], LRWREYQRQDY [PRKRIP1_Y90_R87W] is higher in SH2 binding enrichment: 0.979 for the first, 1.32 for the second.

Compared with KILGRYFETGS [PAX2_Y72_YF], FPLELYERVRI [PRKCG_Y312_M317I_YF] is lower in SH2 binding enrichment: 0.845 for the first, 0.775 for the second.

First: MTFVFYRENLR [NLRP14_Y443_YF]
Second: FQKNVYSEELR [LMNA_Y211_I210V]
The SH2 binding enrichment of the first is higher: 1.14 for the first, 0.591 for the second.

With IQKKYYRAILE [CHD7_Y1218] the SH2 binding enrichment was 0.636.

Target: c-Src SH2
Assay: as above

First: AEVIWYKGDEV
Second: EILLSDLRTGY [TGM1_Y365_Y365D]
The SH2 binding enrichment of the first is higher: 0.475 for the first, 0.447 for the second.

First: QDEHGYISLCF [HSPB1_Y133_R136L]
Second: RQGKDYIGAIP [KDR_Y951_V952I]
The SH2 binding enrichment of the first is higher: 0.485 for the first, 0.428 for the second.

Going from CGTPDYIAPEI [PRKCG_Y521] to LVTCSYLLGNS [LMNA_Y646_R644C], the SH2 binding enrichment falls from 0.589 to 0.37.

Going from QDTSRYTVCNL [BIRC3_Y245_S248C] to KELANYFKLHH [AK7_Y390_YF], the SH2 binding enrichment falls from 1.29 to 0.516.

Going from KDHPDYKYQPR [SOX10_Y171] to WAMLAYNRSKL [WWOX_Y293], the SH2 binding enrichment falls from 0.619 to 0.565.

First: EKLIQYCQSKS [AKR1B1_Y199_G204S]
Second: DMDATYRPMFS [JUP_Y701_YF]
The SH2 binding enrichment of the first is higher: 0.609 for the first, 0.472 for the second.

Going from WHYTFYNELRV [ACTC1_Y93_H90Y] to TQTPPYVKKHR [LARP1B_Y457_P462R], the SH2 binding enrichment rises from 0.572 to 0.954.

Going from NPQKSYLIRLF [WAS_Y83_F84L_YF] to KRGVSYILKLA [SERPINB1_Y84_A82V], the SH2 binding enrichment rises from 0.672 to 0.763.

Compared with CPPKVYELMRA [ABL2_Y515], FLTQHYDAKPQ [ANG_Y38] is lower in SH2 binding enrichment: 1.53 for the first, 0.481 for the second.

First: EDKFMYFEFPQ [PTEN_Y240]
Second: RVNSAYQEKVS [ACAN_Y100_D102E]
The SH2 binding enrichment of the first is higher: 0.543 for the first, 0.448 for the second.

First: FTRNFYVRAVL [CYBA_Y88_YF]
Second: MSLRSYGSREG [APC_Y96]
The SH2 binding enrichment of the first is lower: 0.448 for the first, 0.453 for the second.

Compared with VDTFWYKFLKR [EPM2A_Y86], FQLENCCNGGG [INS_Y108_Y108C_YF] is lower in SH2 binding enrichment: 0.602 for the first, 0.537 for the second.

Compared with QSVEPYTKQQL [STAT3_Y640], EYYENYIEELK [PARP4_Y218_F215Y] is higher in SH2 binding enrichment: 0.528 for the first, 1.04 for the second.

Going from SAASGYSDVTD [DTX2_Y425_T421A] to LRWREYQRQDY [PRKRIP1_Y90_R87W], the SH2 binding enrichment falls from 6.28 to 1.26.

Compared with KILGRYFETGS [PAX2_Y72_YF], FPLELYERVRI [PRKCG_Y312_M317I_YF] is higher in SH2 binding enrichment: 0.438 for the first, 0.567 for the second.

Compared with MTFVFYRENLR [NLRP14_Y443_YF], FQKNVYSEELR [LMNA_Y211_I210V] is lower in SH2 binding enrichment: 0.716 for the first, 0.566 for the second.

IQKKYYRAILE [CHD7_Y1218] gave an SH2 binding enrichment of 0.637.
